Test [1] addresses M2-1-mCherry fusion protein (wild type) (human respiratory syncytial virus (hRSV), strain Long). Nature of the test: SEC; Hi-Load 16/600 Superdex 200, 20 mM Tris-HCl pH 7.4, 150 mM NaCl, after GST cleavage. (Size exclusion chromatography separates by hydrodynamic size, large species first.)
Test [2] has as its target M2-1(R151K)-mCherry mutant (human respiratory syncytial virus (hRSV), strain Long). The description is as above.
The target of test [3] is T1, M2-1 core domain (wild type) (human respiratory syncytial virus …, UniProt P04545 58-177, 15N-labelled for NMR).
T1 construct: C-terminal globular core domain of M2-1 of hRSV strain Long, from pGEX-M2-1core; UniProt entry of strain Long not known to me; also called 15N-M2-1core; WT M2-1core
T1 sequence: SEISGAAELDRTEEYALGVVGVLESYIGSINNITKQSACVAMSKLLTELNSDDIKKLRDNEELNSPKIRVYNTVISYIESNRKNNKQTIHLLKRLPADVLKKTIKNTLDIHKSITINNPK
Nature of the test: MST; FITC-P95-112 fixed at 100 nM, M2-1core 0 to 33.5 µM, PBS with 1% DMSO and 0, 1 or 10 µM CPM, 20 °C, Monolith NT.115. Conditions: both partners purified.

Where no end group is shown, it is not given here. The star is where a group is joined. FITC = O=C1OC2(c3ccc(O)cc3Oc3cc(O)ccc32)c2ccc(NC(=S)*)cc21

With “M2-1-mCherry fusion protein (wild type) (natural protein)”, the stoichiometry N (usually a count of units in the complex or per binding partner) in test [1] turned out to be 4.

In the case of “M2-1(R151K)-mCherry mutant (natural protein)”, the stoichiometry N in test [2] is 4.

B1: FITC-P(95-112) peptide (peptide)
peptide: {FITC}-DNPFSKLYKETIETFDNN
notes: also called synthetic FITC-P peptide; P peptide; source: synthetic peptide, bought: Proteogenix
Regarding B1, in test [3], the Kd – broadly, the free concentration of one partner at which half of the binding sites on the other are occupied at equilibrium, for simple one-to-one binding – is about 20 µM.
